Substitutions are numbered along the chain they refer to. Numbers in names are those of the source. Where two headings read alike, the source gives them in different places. One block for each binder: values may come before it.
Assays:
Assay in all cases: cryo-EM structure
cryo-EM structure [1] = target: the molecule itself
bovine calmodulin = bovine calmodulin (bovine, UniProt P62157 1-149)
cryo-EM structure [2] = target: the molecule itself; remark: listed apart in the source

B1: rabbit TRPV5 with a C-terminal truncation (1-660) (domain or fragment)
chain: MGACPPKAKGPWAQLQKLLISWPVGEQDWEQYRDRVNMLQQERIRDSPLLQAAKENDLRLLKILLLNQSCDFQQRGAVGETALHVAALYDNLEAATLLMEAAPELAKEPALCEPFVGQTALHIAVMNQNLNLVRALLARGASVSARATGAAFRRSPHNLIYYGEHPLSFAACVGSEEIVRLLIEHGADIRAQDSLGNTVLHILILQPNKTFACQMYNLLLSYDEHSDHLQSLELVPNHQGLTPFKLAGVEGNTVMFQHLMQKRKHVQWTCGPLTSTLYDLTEIDSWGEELSFLELVVSSKKREARQILEQTPVKELVSFKWKKYGRPYFCVLASLYILYMICFTTCCIYRPLKLRDDNRTDPRDITILQQKLLQEAYVTHQDNIRLVGELVTVTGAVIILLLEIPDIFRVGASRYFGQTILGGPFHVIIITYASLVLLTMVMRLTNMNGEVVPLSFALVLGWCSVMYFARGFQMLGPFTIMIQKMIFGDLMRFCWLMAVVILGFASAFHITFQTEDPNNLGEFSDYPTALFSTFELFLTIIDGPANYSVDLPFMYCITYAAFAIIATLLMLNLFIAMMGDTHWRVAQERDELWRAQVVATTVMLERKMPRFLWPRSGICGYEYGLGDRWFLRVENHHDQNPLRVLRYVEAFKCSDKEDGQ
stoichiometry N (cryo-EM structure [1]): 4

binding result (bovine calmodulin): binds
B2: rabbit TRPV5 full length channel (1-730) (natural protein)
chain: MGACPPKAKGPWAQLQKLLISWPVGEQDWEQYRDRVNMLQQERIRDSPLLQAAKENDLRLLKILLLNQSCDFQQRGAVGETALHVAALYDNLEAATLLMEAAPELAKEPALCEPFVGQTALHIAVMNQNLNLVRALLARGASVSARATGAAFRRSPHNLIYYGEHPLSFAACVGSEEIVRLLIEHGADIRAQDSLGNTVLHILILQPNKTFACQMYNLLLSYDEHSDHLQSLELVPNHQGLTPFKLAGVEGNTVMFQHLMQKRKHVQWTCGPLTSTLYDLTEIDSWGEELSFLELVVSSKKREARQILEQTPVKELVSFKWKKYGRPYFCVLASLYILYMICFTTCCIYRPLKLRDDNRTDPRDITILQQKLLQEAYVTHQDNIRLVGELVTVTGAVIILLLEIPDIFRVGASRYFGQTILGGPFHVIIITYASLVLLTMVMRLTNMNGEVVPLSFALVLGWCSVMYFARGFQMLGPFTIMIQKMIFGDLMRFCWLMAVVILGFASAFHITFQTEDPNNLGEFSDYPTALFSTFELFLTIIDGPANYSVDLPFMYCITYAAFAIIATLLMLNLFIAMMGDTHWRVAQERDELWRAQVVATTVMLERKMPRFLWPRSGICGYEYGLGDRWFLRVENHHDQNPLRVLRYVEAFKCSDKEDGQEQLSEKRPSTVESGMLSRASVAFQTPSLSRTTSQSSNSHRGWEILRRNTLGHLNLGLDLGEGDGEEVYHF
stoichiometry N (cryo-EM structure [2]): 4

B3: full length TRPV5 with a W583A point mutation (natural protein)
chain: B2 chain with W583A
stoichiometry N (cryo-EM structure [1]): 4

Source: publication doi:10.1101/434902 (bioRxiv, 2018)
